Experimental data published in patent publication US20100239556A1, “PROMOTING ECM PRODUCTION BY FIBROBLAST CELLS AND/OR PROMOTING MIGRATION OF FIBROBLAST CELLS IN A BIOLOGICAL SYSTEM” (TGR BioScience Pty Ltd., priority 2006, published 2010).

How the values were obtained:
[1] = test system: human foreskin fibroblast cells (HFF); experiment: Alamar blue viability/growth assay; type: cell-based; details: 72 hours
Experimental: Primary human foreskin fibroblast cells (HFF) were seeded into 96 well plates at a density of 1.2×10^4 cells/well and cultured overnight in 10% fetal bovine serum/Dulbecco's minimum essential media (10% FBS/DMEM) at 37° C. and 5% CO2. The cells were then starved overnight in serum free DMEM and triplicate wells treated for six hours with a range of doses of proteins with peroxidase activity; horse radish peroxidase (HRP; 0.2-50 ug/ml), Arthromyces ramosus peroxidase (ARP; 0.2-50 ug/ml), microperoxidase (MP; 8-500 ug/ml), soy bean peroxidase (SBP; 0.2-100 ug/ml) and lactoperoxidase (LP; 10-310 ug/ml) (all obtained from Sigma-Aldrich). […] After 72 hours the culture media was collected for assessment of secreted, soluble collagen types I, III and VI as well as fibronectin protein and the cells assessed for viability/growth using an alamar blue fluorescent dye assay. […] Briefly, cells were bathed in a 10% Alamar Blue/phosphate-buffered saline (PBS) solution for 30-60 minutes and fluorescence measured at wavelengths of 485 nm excitation and 595 nm emission using a Wallac Victor Multilabel HTS counter. Relative fluorescent units (RFU) for each sample were normalized to control wells (DMEM only treated cells) and data expressed as mean±standard error of the mean (sem) for triplicate wells. […]

HFF cells = experiment: Collagen I production in the presence of dexamethasone; type: cell-based, human
Experimental: (§1) Primary human foreskin fibroblast cells (HFF) were seeded into 96 well plates at a density of 1.2×10^4 cells/well and cultured overnight in 10% fetal bovine serum/Dulbecco's minimum essential media (10% FBS/DMEM) at 37° C. and 5% CO2. The cells were then starved overnight in serum free DMEM and triplicate wells treated for six hours with a range of doses of proteins with peroxidase activity; horse radish peroxidase (HRP; 0.2-50 ug/ml), Arthromyces ramosus peroxidase (ARP; 0.2-50 ug/ml), microperoxidase (MP; 8-500 ug/ml), soy bean peroxidase (SBP; 0.2-100 ug/ml) and lactoperoxidase (LP; 10-310 ug/ml) (all obtained from Sigma-Aldrich). At the end of the six hour treatment period, the media was aspirated and replaced with fresh serum free DMEM and the cells cultured for a further 72 hours. After 72 hours the culture media was collected for assessment of secreted, soluble collagen types I, III and VI as well as fibronectin protein and the cells assessed for viability/growth using an alamar blue fluorescent dye assay. This assay measures the reduction of oxidized, blue nonfluorescent Alamar Blue reagent to a pink fluorescent dye in the cell medium, such that the higher the amount of reduction, the greater the cell number and/or activity (O'Brien Eur J Biochem 267 2000). Briefly, cells were bathed in a 10% Alamar Blue/phosphate-buffered saline (PBS) solution for 30-60 minutes and fluorescence measured at wavelengths of 485 nm excitation and 595 nm emission using a Wallac Victor Multilabel HTS counter. Relative fluorescent units (RFU) for each sample were normalized to control wells (DMEM only treated cells) and data expressed as mean±standard error of the mean (sem) for triplicate wells. Experiments were repeated at least three times with the combined data from all experiments shown.
The amount of soluble collagen types I, III, and VI in HFF conditioned media was measured by a direct coat ELISA method using standard curves constructed from purified human collagen I, III or VI (extracted from human placenta; col I, BD Biosciences; col III and VI, Rocklands Immunochemicals) and fibronectin (extracted from human plasma, Chemicon). Samples and standards (20 μl/well) were added to a 384 well spectraplate (Packard BioScience) and left at room temperature (RT) overnight. […] After a final wash (6×PBS-T), enhancement solution was added for at least 10 minutes and fluorescence measured at excitation 340 nm and emission 615 nm using a Wallac Victor Multilabel HTS counter. The respective ECM concentration of each sample was determined from the standard curve (μg/ml) and normalized to control wells (DMEM only treated cells) with the mean±sem for triplicate wells calculated. […]

[2] = test system: human foreskin fibroblast cells (HFF cells); experiment: Repeated stimulation of collagen I production; type: cell-based; details: further 5 days without second stimulation
Experimental: Experiments were performed to ensure human fibroblast cells could be stimulated to increase ECM protein production by proteins having peroxidase activity after more than one application of the proteins having peroxidase activity. The capacity to respond repeatedly to the proteins having peroxidase activity provides important utility for the generation of ECM in vitro, particularly given that spent culture media needs to be replaced on a regular basis to maintain the viability of the cells. These experiments were performed using human foreskin fibroblast cells (HFF cells) seeded into 96 well plates at a density of 1.2×10^4 cells/well and cultured for one week in 10% fetal bovine serum/Dulbecco's minimum essential media (10% FBS/DMEM) at 37° C. and 5% CO2 (as described in Example 3). The confluent cells were then starved overnight in serum free DMEM and triplicate wells treated for six hours with MP, ARP and LP as representative proteins having peroxidase activity or the control agents transforming growth factor β2 (TGFβ2; R&D Systems) and 10% FBS (JRH BioSciences). After 48 hours, the conditioned media was collected for measurement of collagen I (as a representative ECM protein) and the cells either restimulated for six hours with fresh solutions containing proteins having peroxidase activity or control agents or the media was replaced with fresh serum free DMEM. The cells were cultured for a further 5 days after which the media was collected a second time for the measurement of collagen I. Media was also collected from replicate wells treated at the start of the experiment and left for 7 days (total culture period) for comparison.

dermis = experiment: Fibrogenic response after intradermal injection; type: in vivo, Sprague-Dawley rats; details: LP 125 μg, TGFβ 0.5 μg, 3 days
Experimental: Groups of up to 4-8 female Sprague-Dawley rats were lightly anaesthetized and the dorsum shaved. At different sites on their dorsum, each rat received a bolus, intradermal injection of 4 doses of a protein with peroxidase activity (LP, […]; HRP, 1.25-25 μg; SBP, 1.25-25 μg; or micro-peroxidase [MP], 5-125 μg), a vehicle control or TGFβ2 as a positive control. Arthromyces ramosus peroxidase (ARP) was also injected at one dose of 25 μg. Proteins with peroxidase activity were injected in a volume of 50 μl which was sufficient to create a small blister in the skin that resolved within a few minutes. Across the group of rats, each dose of proteins with peroxidase activity was injected into each of the different injection sites to control for any site-related, intra-rat variation. The rats were returned to their cage and left alone for 3 days after which they were killed by CO2 asphyxiation and the skin at the injection sites collected for analysis. The skin at the injection sites was excised using a 6 mm biopsy punch with each piece bisected and fixed in 10% buffered formalin. Fixed tissue was processed for histological assessment by graded dehydration and mounting in paraffin blocks. Blocks were sectioned and sections stained with haematoxylin and eosin (H&E) and Masson's trichrome for qualitative analysis by an experienced pathologist. H&E stained sections were scored for the “fibroblast reaction” (1+-4+) to reflect the number of fibroblast cells identified at the injection site, with 4+ representing the greatest response. H&E and Massons trichrome stained sections were used to evaluate the amount of deposited, collagen-rich extracellular matrix (ECM) that was associated with the fibroblast reaction at each injection site. The collagen-rich ECM deposition was scored 1+-3+ with 3+ representing the greatest response. The scores were combined across the group of rats and statistical analysis performed using a Kruskal-Wallis one way analysis of variance on ranks (ANOVA) followed by post-hoc t-test comparing the response of the proteins with peroxidase activity to the control using Dunn's or Dunnett's method, p<0.05 was considered significant.

[3] = test system: human foreskin fibroblast cells (HFF); experiment: Soluble collagen I, III and VI in HFF conditioned media (direct coat ELISA); type: cell-based; details: 30 μg/ml, 72 hours
Experimental: as §1, with “After 72 hours the culture media was collected for assessment of secreted, soluble collagen types I, III and VI as well as fibronectin protein and the cells assessed for viability/growth using an alamar blue fluorescent dye assay.” left out
The amount of soluble collagen types I, III, and VI in HFF conditioned media was measured by a direct coat ELISA method using standard curves constructed from purified human collagen I, III or VI (extracted from human placenta; col I, BD Biosciences; col III and VI, Rocklands Immunochemicals) and fibronectin (extracted from human plasma, Chemicon). Samples and standards (20 μl/well) were added to a 384 well spectraplate (Packard BioScience) and left at room temperature (RT) overnight. The spectraplate was then washed 6 times with PBS-tween 0.05% (PBS-T) and 2.5% bovine serum albumin (BSA)/PBS blocking solution added to each well and the plate incubated for 1 hour at RT. The plate was then washed 6 times with PBS-T and primary antibody (0.25 μg/ml rabbit-anti-human-collagen I polyclonal; 2 μg/ml rabbit-anti-human-collagen III polyclonal; 0.25 μg/ml rabbit-anti-human-collagen VI polyclonal; 0.2 μg/ml rabbit-anti-human-fibronectin polyclonal, all from Rockland Immunochemicals) in 5% non-fat dairy milk added to each well for four hours at RT. After washing (6×PBS-T), europium tagged anti-rabbit secondary antibody (0.5 μg/ml 1% BSA/PBS; Wallac Oy) was added for 1 hour at RT. After a final wash (6×PBS-T), enhancement solution was added for at least 10 minutes and fluorescence measured at excitation 340 nm and emission 615 nm using a Wallac Victor Multilabel HTS counter. The respective ECM concentration of each sample was determined from the standard curve (μg/ml) and normalized to control wells (DMEM only treated cells) with the mean±sem for triplicate wells calculated. Experiments were repeated at least three times with the combined data from all experiments shown.

Molecule: recombinant ascorbate peroxidase [APX]
- HFF cell growth or viability [1]: Neither APX nor MPO had a major effect

Molecule: C[C@@H]1C[C@H]2[C@@H]3CCC4=CC(=O)C=C[C@]4(C)[C@@]3(F)[C@@H](O)C[C@]2(C)[C@@]1(O)C(=O)CO [dexamethasone, reference compound]
- inhibition at 20 µM (HFF cells; Homo sapiens, HFF, dexamethasone 20 μM, read-out: inhibition of collagen stimulated by ARP): ~30%

B1: transforming growth factor β2 (protein, UniProt P61812 303-414, looked up)
Transforming growth factor …: ALDAAYCFRNVQDNCCLRPLYIDFKRDLGWKWIHEPKGYNANFCAGACPYLWSSDTQHSRVLSLYNTINPEASASPCCVSQDLEPLTILYYIGKTPKIEQLSNMIVKSCKCS
notes: control agent, fibrogenic factor (R&D Systems)
- collagen I production when left untreated after the media change at day 2 [2]: maintained level of collagen I production
- number of fibroblasts present at the injection site (H&E images) (dermis): profound increase in the number of fibroblasts
- maximum increase in collagen I levels (HFF cells; 1-10 ng/ml, no dexamethasone): 2-2.5 fold

B2: myeloperoxidase (protein, UniProt P05164 165-745, looked up)
Myeloperoxidase: VTCPEQDKYRTITGMCNNRRSPTLGASNRAFVRWLPAEYEDGFSLPYGWTPGVKRNGFPVALARAVSNEIVRFPTDQLTPDQERSLMFMQWGQLLDHDLDFTPEPAARASFVTGVNCETSCVQQPPCFPLKIPPNDPRIKNQADCIPFFRSCPACPGSNITIRNQINALTSFVDASMVYGSEEPLARNLRNMSNQLGLLAVNQRFQDNGRALLPFDNLHDDPCLLTNRSARIPCFLAGDTRSSEMPELTSMHTLLLREHNRLATELKSLNPRWDGERLYQEARKIVGAMVQIITYRDYLPLVLGPTAMRKYLPTYRSYNDSVDPRIANVFTNAFRYGHTLIQPFMFRLDNRYQPMEPNPRVPLSRVFFASWRVVLEGGIDPILRGLMATPAKLNRQNQIAVDEIRERLFEQVMRIGLDLPALNMQRSRDHGLPGYNAWRRFCGLPQPETVGQLGTVLRNLKLARKLMEQYGTPNNIDIWMGGVSEPLKRKGRVGPLLACIIGTQFRKLRDGDRFWWENEGVFSMQQRQALAQISLPRIICDNTGITTVSKNNIFMSNSYPRDFVNCSTLPALNLASWREAS
- increase in collagen I production [3]: 3 fold
- HFF cell growth or viability [1]: Neither APX nor MPO had a major effect
